These results are taken from patent US11833164B2, “Methods of treating Fabry disease in patients having a mutation in the GLA gene” (Amicus Therapeutics, Inc., priority 2019, dated 2023).

The test has as its system mutant form of α-Gal A expressed in HEK-293 cells. The test is described as follows: HEK assay (GLP HEK / Migalastat Amenability Assay): α-Gal A activity in lysates of transiently transfected HEK-293 cells incubated with or without 10 μM migalastat. Format: cell-based, human. Particulars: for Absolute increase (% WT): 10 μM migalastat versus baseline; for Relative increase: 10 μM migalastat α-Gal A activity relative to baseline; for 10 μM migalastat α-Gal A activity (% WT): 5 days; for 10 μM migalastat α-Gal A activity (% WT) / Baseline α-Gal A activity (% WT): percentage of baseline wild-type α-Gal A activity; for 10 μM migalastat α-Gal A activity (% WT) / Baseline α-Gal A activity (% WT) / Baseline α-Gal A activity / 10 μM migalastat α-Gal A activity: mean ± SEM; for Baseline α-Gal A activity (% WT): absence of migalastat; for Baseline α-Gal A activity / 10 μM migalastat α-Gal A activity: lysates of HEK-293 cells transfected with the mutant form; for Baseline α-Gal A activity: incubated 5 days in the absence of migalastat; for 10 μM migalastat α-Gal A activity: incubated 5 days with 10 μM migalastat. As to the method:
Such mutations or variants are also referred to herein as “HEK assay amenable” mutations or variants.
The α-Gal A activity is expressed as the nmoles of free 4-MU released per milligram of protein per hour (nmol/mg/hr).
In Table 7, values for the mean±standard error of the mean (SEM) were calculated. nmol/mg/hr indicates “nmoles of free 4-MU released per mg of protein per hour”. WT indicates “wild-type”. NC indicates “not calculable”. N/A indicates “not applicable”.

B1: H125D (protein)
chain: MQLRNPELHLGCALALRFLALVSWDIPGARALDNGLARTPTMGWLHWERFMCNLDCQEEPDSCISEKLFMEMAELMVSEGWKDAGYEYLCIDDCWMAPQRDSEGRLQADPQRFPHGIRQLANYVDSKGLKLGIYADVGNKTCAGFPGSFGYYDIDAQTFADWGVDLLKFDGCYCDSLENLADGYKHMSLALNRTGRSIVYSCEWPLYMWPFQKPNYTEIRQYCNHWRNFADIDDSWKSIKSILDWTSFNQERIVDVAGPGGWNDPDMLVIGNFGLSWNQQVTQMALWAIMAAPLFMSNDLRHISPQAKALLQDKDVIAINQDPLGKQGYQLRQGDNFEVWERPLSGLAWAVAMINRQEIGGPRSYTIAVASLGKGVACNPACFITQLLPVKRKLGFYEWTSRLRSHINPTGTVLLQLENTMQMSLKDLL
As to B1, the “Absolute increase (% WT)” value turned out to be 6.5 % WT, the Relative increase is reported as 3.3, the “10 μM migalastat α-Gal A activity (% WT)” value stood at 8.8 ± 1.4 % WT and the “Baseline α-Gal A activity (% WT)” value was determined as 2.3 ± 0.2 % WT. Besides, the “Baseline α-Gal A activity” value is 995 ± 106 nmol/mg/h and the “10 μM migalastat α-Gal A activity” value turned out to be 3282 ± 375 nmol/mg/h.

B2: S126I (protein)
chain: MQLRNPELHLGCALALRFLALVSWDIPGARALDNGLARTPTMGWLHWERFMCNLDCQEEPDSCISEKLFMEMAELMVSEGWKDAGYEYLCIDDCWMAPQRDSEGRLQADPQRFPHGIRQLANYVHIKGLKLGIYADVGNKTCAGFPGSFGYYDIDAQTFADWGVDLLKFDGCYCDSLENLADGYKHMSLALNRTGRSIVYSCEWPLYMWPFQKPNYTEIRQYCNHWRNFADIDDSWKSIKSILDWTSFNQERIVDVAGPGGWNDPDMLVIGNFGLSWNQQVTQMALWAIMAAPLFMSNDLRHISPQAKALLQDKDVIAINQDPLGKQGYQLRQGDNFEVWERPLSGLAWAVAMINRQEIGGPRSYTIAVASLGKGVACNPACFITQLLPVKRKLGFYEWTSRLRSHINPTGTVLLQLENTMQMSLKDLL
On to B2, for which the “Absolute increase (% WT)” value is on record as 16.0 % WT, the Relative increase was determined as 1.2, the “10 μM migalastat α-Gal A activity (% WT)” value came to 85.9 ± 5.3 % WT and the “Baseline α-Gal A activity (% WT)” value was determined as 69.8 ± 5.1 % WT. Besides, the “Baseline α-Gal A activity” value came out at 28685 ± 1923 nmol/mg/h and the “10 μM migalastat α-Gal A activity” value stood at 35340 ± 2027 nmol/mg/h.

B3: S126C (protein)
chain: MQLRNPELHLGCALALRFLALVSWDIPGARALDNGLARTPTMGWLHWERFMCNLDCQEEPDSCISEKLFMEMAELMVSEGWKDAGYEYLCIDDCWMAPQRDSEGRLQADPQRFPHGIRQLANYVHCKGLKLGIYADVGNKTCAGFPGSFGYYDIDAQTFADWGVDLLKFDGCYCDSLENLADGYKHMSLALNRTGRSIVYSCEWPLYMWPFQKPNYTEIRQYCNHWRNFADIDDSWKSIKSILDWTSFNQERIVDVAGPGGWNDPDMLVIGNFGLSWNQQVTQMALWAIMAAPLFMSNDLRHISPQAKALLQDKDVIAINQDPLGKQGYQLRQGDNFEVWERPLSGLAWAVAMINRQEIGGPRSYTIAVASLGKGVACNPACFITQLLPVKRKLGFYEWTSRLRSHINPTGTVLLQLENTMQMSLKDLL
B3: the “Absolute increase (% WT)” value came out at 7.5 % WT, the Relative increase is 1.4, the “10 μM migalastat α-Gal A activity (% WT)” value was 24.5 ± 1.5 % WT and the “Baseline α-Gal A activity (% WT)” value came to 16.9 ± 1.1 % WT. For the same molecule, the “Baseline α-Gal A activity” value was determined as 7046 ± 488 nmol/mg/h and the “10 μM migalastat α-Gal A activity” value turned out to be 10050 ± 554 nmol/mg/h.

B4: K127E (protein)
chain: MQLRNPELHLGCALALRFLALVSWDIPGARALDNGLARTPTMGWLHWERFMCNLDCQEEPDSCISEKLFMEMAELMVSEGWKDAGYEYLCIDDCWMAPQRDSEGRLQADPQRFPHGIRQLANYVHSEGLKLGIYADVGNKTCAGFPGSFGYYDIDAQTFADWGVDLLKFDGCYCDSLENLADGYKHMSLALNRTGRSIVYSCEWPLYMWPFQKPNYTEIRQYCNHWRNFADIDDSWKSIKSILDWTSFNQERIVDVAGPGGWNDPDMLVIGNFGLSWNQQVTQMALWAIMAAPLFMSNDLRHISPQAKALLQDKDVIAINQDPLGKQGYQLRQGDNFEVWERPLSGLAWAVAMINRQEIGGPRSYTIAVASLGKGVACNPACFITQLLPVKRKLGFYEWTSRLRSHINPTGTVLLQLENTMQMSLKDLL
B4: the “Absolute increase (% WT)” value is given as 6.4 % WT, the Relative increase amounted to 1.2, the “10 μM migalastat α-Gal A activity (% WT)” value is listed as 32.2 ± 2.3 % WT and the “Baseline α-Gal A activity (% WT)” value is reported as 25.8 ± 1.1 % WT. The “Baseline α-Gal A activity” value worked out at 8968 ± 519 nmol/mg/h and the “10 μM migalastat α-Gal A activity” value was found to be 11003 ± 768 nmol/mg/h.

B5: H125N (protein)
chain: MQLRNPELHLGCALALRFLALVSWDIPGARALDNGLARTPTMGWLHWERFMCNLDCQEEPDSCISEKLFMEMAELMVSEGWKDAGYEYLCIDDCWMAPQRDSEGRLQADPQRFPHGIRQLANYVNSKGLKLGIYADVGNKTCAGFPGSFGYYDIDAQTFADWGVDLLKFDGCYCDSLENLADGYKHMSLALNRTGRSIVYSCEWPLYMWPFQKPNYTEIRQYCNHWRNFADIDDSWKSIKSILDWTSFNQERIVDVAGPGGWNDPDMLVIGNFGLSWNQQVTQMALWAIMAAPLFMSNDLRHISPQAKALLQDKDVIAINQDPLGKQGYQLRQGDNFEVWERPLSGLAWAVAMINRQEIGGPRSYTIAVASLGKGVACNPACFITQLLPVKRKLGFYEWTSRLRSHINPTGTVLLQLENTMQMSLKDLL
Consider B5, for which the “Absolute increase (% WT)” value worked out at 14.9 % WT, the Relative increase worked out at 1.4, the “10 μM migalastat α-Gal A activity (% WT)” value amounted to 48.4 ± 2.7 % WT and the “Baseline α-Gal A activity (% WT)” value worked out at 33.5 ± 1.8 % WT. Further, the “Baseline α-Gal A activity” value stood at 14162 ± 994 nmol/mg/h and the “10 μM migalastat α-Gal A activity” value worked out at 20228 ± 1240 nmol/mg/h.

B6: H125R (protein)
chain: MQLRNPELHLGCALALRFLALVSWDIPGARALDNGLARTPTMGWLHWERFMCNLDCQEEPDSCISEKLFMEMAELMVSEGWKDAGYEYLCIDDCWMAPQRDSEGRLQADPQRFPHGIRQLANYVRSKGLKLGIYADVGNKTCAGFPGSFGYYDIDAQTFADWGVDLLKFDGCYCDSLENLADGYKHMSLALNRTGRSIVYSCEWPLYMWPFQKPNYTEIRQYCNHWRNFADIDDSWKSIKSILDWTSFNQERIVDVAGPGGWNDPDMLVIGNFGLSWNQQVTQMALWAIMAAPLFMSNDLRHISPQAKALLQDKDVIAINQDPLGKQGYQLRQGDNFEVWERPLSGLAWAVAMINRQEIGGPRSYTIAVASLGKGVACNPACFITQLLPVKRKLGFYEWTSRLRSHINPTGTVLLQLENTMQMSLKDLL
For the molecule B6, the “Absolute increase (% WT)” value is 23.0 % WT, the Relative increase was 1.6, the “10 μM migalastat α-Gal A activity (% WT)” value turned out to be 59.1 ± 1.9 % WT and the “Baseline α-Gal A activity (% WT)” value is 36 ± 1.2 % WT. In addition, the “Baseline α-Gal A activity” value was found to be 14738 ± 699 nmol/mg/h and the “10 μM migalastat α-Gal A activity” value was found to be 24004 ± 987 nmol/mg/h.
